# In paper PMC4726456:
# Biological target: 15-residue tubulin peptide
substance,measurement,value
F105A TAT mutant (from UniProt Q5SQI0 1-421) (enzyme),acetylation activity kept with a 15-residue tubulin peptide (data not shown),89 % activity
